# Experimental data as given in US20060172938A1 (RESEARCH FOUNDATION OF STATE UNIVERSITY OF NEW YORK, published 2006).
# Where no end group is shown, it is not given here.
# T1: Seprase on seprase-expressing LOX cells (human (human melanoma cell line LOX), UniProt Q12884 1-760)
# T1 construct: whole, on cells
# T1 sequence (looked up): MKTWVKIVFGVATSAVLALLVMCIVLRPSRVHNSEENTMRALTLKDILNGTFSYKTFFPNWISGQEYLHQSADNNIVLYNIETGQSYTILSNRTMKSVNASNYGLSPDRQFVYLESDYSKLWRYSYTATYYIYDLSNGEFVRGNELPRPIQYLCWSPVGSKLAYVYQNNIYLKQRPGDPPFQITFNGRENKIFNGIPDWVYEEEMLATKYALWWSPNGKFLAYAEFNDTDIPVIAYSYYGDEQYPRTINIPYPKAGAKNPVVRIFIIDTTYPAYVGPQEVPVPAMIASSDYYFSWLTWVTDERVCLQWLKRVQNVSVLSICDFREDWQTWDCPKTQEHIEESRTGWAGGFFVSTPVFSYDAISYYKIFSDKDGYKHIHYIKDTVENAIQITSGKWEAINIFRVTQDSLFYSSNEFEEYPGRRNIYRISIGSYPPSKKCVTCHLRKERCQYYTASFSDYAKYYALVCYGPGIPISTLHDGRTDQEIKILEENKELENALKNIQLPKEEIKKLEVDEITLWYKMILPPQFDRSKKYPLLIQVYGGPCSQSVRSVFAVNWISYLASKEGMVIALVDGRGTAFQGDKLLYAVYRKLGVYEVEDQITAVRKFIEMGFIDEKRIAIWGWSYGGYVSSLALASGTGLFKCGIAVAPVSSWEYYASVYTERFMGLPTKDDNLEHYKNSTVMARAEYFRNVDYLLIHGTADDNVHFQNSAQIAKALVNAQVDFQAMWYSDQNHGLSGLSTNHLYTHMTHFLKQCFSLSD
# T2: Native seprase isolated from LOX cells (human (isolated from the human melanoma …, UniProt Q12884 1-760))
# T2 sequence (looked up): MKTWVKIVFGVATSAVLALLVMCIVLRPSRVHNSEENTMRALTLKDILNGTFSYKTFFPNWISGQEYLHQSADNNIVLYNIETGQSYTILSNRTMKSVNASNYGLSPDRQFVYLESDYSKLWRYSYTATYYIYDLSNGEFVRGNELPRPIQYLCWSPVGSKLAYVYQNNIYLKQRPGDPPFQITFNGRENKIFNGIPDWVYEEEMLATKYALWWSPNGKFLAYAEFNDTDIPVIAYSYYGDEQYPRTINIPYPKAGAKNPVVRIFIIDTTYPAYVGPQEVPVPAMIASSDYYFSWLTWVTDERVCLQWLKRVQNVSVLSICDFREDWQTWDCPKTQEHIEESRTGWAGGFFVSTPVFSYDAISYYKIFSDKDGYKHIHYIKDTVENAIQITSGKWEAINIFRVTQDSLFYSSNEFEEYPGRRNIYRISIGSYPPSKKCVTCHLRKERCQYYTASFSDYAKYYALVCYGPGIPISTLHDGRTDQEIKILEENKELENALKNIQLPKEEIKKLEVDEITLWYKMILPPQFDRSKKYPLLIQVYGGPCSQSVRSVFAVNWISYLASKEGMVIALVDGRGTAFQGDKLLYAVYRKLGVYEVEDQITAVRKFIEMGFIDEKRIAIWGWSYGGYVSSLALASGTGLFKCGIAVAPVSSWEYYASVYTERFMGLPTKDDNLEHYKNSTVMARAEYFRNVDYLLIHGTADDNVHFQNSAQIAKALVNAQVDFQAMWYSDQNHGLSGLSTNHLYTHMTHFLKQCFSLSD
# How the values were obtained:
# [1] = molecular target: T1, Seprase on seprase-expressing LOX cells; assay: ELISA and immunofluorescence on seprase-expressing LOX cells
# [2] = molecular target: T1, Seprase on seprase-expressing LOX cells; assay: ELISA and immunofluorescence on LOX cells
# [3] = molecular target: T1, Seprase on seprase-expressing LOX cells; assay: cell-based or functional assay
# [4] = molecular target: T2, Native seprase isolated from LOX cells; assay: cell-based or functional assay
# [5] = molecular target: T2, Native seprase isolated from LOX cells; assay: enzyme inhibition kinetics, prolyl dipeptidase activity of seprase with Gly-Pro-pNA, time progress curves (FIG. 1D)
# [6] = molecular target: T2, Native seprase isolated from LOX cells; assay: inhibition kinetic analysis; reference is DPP4
# DPP4 = assay: enzyme inhibition kinetics, prolyl peptidase activity of DPP4 with Gly-Pro-pNA, time progress curves (FIG. 1E)
# Chain of DPP4 (P27487 whole entry): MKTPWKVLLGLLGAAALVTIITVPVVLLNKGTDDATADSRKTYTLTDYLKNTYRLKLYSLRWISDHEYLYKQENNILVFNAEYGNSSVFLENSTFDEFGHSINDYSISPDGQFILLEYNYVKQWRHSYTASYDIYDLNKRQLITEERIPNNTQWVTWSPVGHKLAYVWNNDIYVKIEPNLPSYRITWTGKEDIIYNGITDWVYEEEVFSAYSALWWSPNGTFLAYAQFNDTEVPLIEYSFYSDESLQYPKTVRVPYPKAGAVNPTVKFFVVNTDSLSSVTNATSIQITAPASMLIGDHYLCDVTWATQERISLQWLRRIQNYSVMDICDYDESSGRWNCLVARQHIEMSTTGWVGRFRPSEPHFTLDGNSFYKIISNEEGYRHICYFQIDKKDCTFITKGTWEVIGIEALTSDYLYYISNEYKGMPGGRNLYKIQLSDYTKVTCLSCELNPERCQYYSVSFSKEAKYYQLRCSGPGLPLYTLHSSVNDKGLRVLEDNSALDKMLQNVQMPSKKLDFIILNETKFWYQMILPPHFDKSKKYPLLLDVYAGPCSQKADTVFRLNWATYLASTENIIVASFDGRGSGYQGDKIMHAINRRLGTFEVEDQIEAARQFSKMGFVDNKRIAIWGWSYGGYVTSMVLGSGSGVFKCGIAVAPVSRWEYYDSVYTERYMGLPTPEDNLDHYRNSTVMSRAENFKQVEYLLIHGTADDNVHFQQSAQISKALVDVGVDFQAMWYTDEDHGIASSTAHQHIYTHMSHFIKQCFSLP
# [7] = molecular target: T2, Native seprase isolated from LOX cells; assay: phage display panning and phage ELISA on seprase-coated wells (positive clone: OD405 experiment/OD405 control >3.0); peptide displayed on phage
binder,measurement,setting,value
GGAGDMWERVSRG,binding result,[1],binds
RKISASEFDRPLR (Control) [control peptide RKISASEFDRPLR],binding result,[2],no binding
"CDMWERVSRC (also: cyclic peptide, mode of cyclisation not given here) [cyclic peptide CDMWERVSRC]",IC50 on the overall collagen degradation by LOX cells (Bodipy FL C5 labelled type I collagen films),[3],~200 µM
same,"IC50, inhibition of the gelatinolytic activity of seprase (DQ-gelatin assay)",[4],< 10 µM
same,Ki,[5],0.4 µM
same,fold more effective against seprase than DPP4,[6],100 times
same,Ki,DPP4,40 µM
DLDYLSKF (tested as a synthetic linear peptide in the enzyme assays),binding result,[7],binds
DMWERVSR (tested as a synthetic linear peptide in the enzyme assays),binding result,[7],binds
